T1: murine B7-H3 antigen (R&D cat# 1397-B3-050/CF) (murine, UniProt Q8VE98 29-244)
T1 construct: Commercial protein; also called mouse B7-H3
T1 sequence: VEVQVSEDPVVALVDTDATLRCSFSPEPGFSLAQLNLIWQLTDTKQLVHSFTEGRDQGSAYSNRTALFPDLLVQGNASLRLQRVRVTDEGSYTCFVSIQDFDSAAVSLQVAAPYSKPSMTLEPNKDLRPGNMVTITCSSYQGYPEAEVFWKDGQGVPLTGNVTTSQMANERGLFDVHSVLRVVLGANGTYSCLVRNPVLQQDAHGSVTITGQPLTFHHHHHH

B1: h1702-IgG1 (antibody, V domains shown)
VH: QVQLVQSGGGVVQPGTSLRLSCAASGFIFSSSAMHWVRQAPGKGLEWVAVISYDGSNKYYVDSVKGRFTISRDNSKNTLYLQMNSLRAEDTAVYYCARSARLYASFDYWGQGALVTVSS
VL: QTVVTQEPSFSVSPGGTVTLTCGLSSGSVSTSHYPSWYQQTPGQAPRMLIYNTNTRSSGVPDRFSGSILGNKAALTITGAQADDESDYYCAIHVDRDIWVFGGGTKLTVLG
notes: Fully human IgG1 with lambda light chain, from an scFv phage library, expressed in HEK293E cells
B2: h1703-IgG1 (antibody, V domains shown)
VH: QVQLQESGGGLVQPGGSLRLSCAASGFTFSSYAMSWVRQAPGKGLEWVSAISGSGGSTYYADSVKGRYTISRDNSKNTLYLQMNSLRAEDTAVYYCAKGVGPVHALDVWGQGTTVTVSS
VL: DIRLTQSPSSLSASVGDRVTITCRASQSISTYLNWYQQKPGKAPILLINAVSGLQSGVPSRFSGSGSGTHFTLTITSLQPEDFATYYCQQSYSTPMWTFGQGTKVEIKR
notes: Fully human IgG1 with kappa light chain, from an scFv phage library, expressed in HEK293E cells

Legend:
[1] = target: B7-H3 on U87MG tumor cells (human) (UniProt Q5ZPR3); experiment: flow cytometry on U87MG cells, APC anti-human IgG Fc detection, geometric mean fluorescence
B7-H3 on U87MG tumor cells (human), sequence (Q5ZPR3 29-534): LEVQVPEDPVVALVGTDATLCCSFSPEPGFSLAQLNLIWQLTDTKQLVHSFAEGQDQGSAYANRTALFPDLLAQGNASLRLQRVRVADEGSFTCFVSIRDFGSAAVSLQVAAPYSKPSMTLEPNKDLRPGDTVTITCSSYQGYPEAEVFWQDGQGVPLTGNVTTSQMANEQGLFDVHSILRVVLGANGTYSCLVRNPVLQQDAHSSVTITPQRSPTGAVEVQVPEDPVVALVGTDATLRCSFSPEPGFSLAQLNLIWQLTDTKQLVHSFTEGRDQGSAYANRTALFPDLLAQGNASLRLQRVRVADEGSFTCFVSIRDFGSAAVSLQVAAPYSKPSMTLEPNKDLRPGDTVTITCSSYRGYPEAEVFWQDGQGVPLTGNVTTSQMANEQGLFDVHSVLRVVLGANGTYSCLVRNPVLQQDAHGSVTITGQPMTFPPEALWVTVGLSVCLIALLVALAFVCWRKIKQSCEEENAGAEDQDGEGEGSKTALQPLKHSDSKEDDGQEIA

[2] = target: T1, murine B7-H3 antigen (R&D cat# …); experiment: SPR (Biacore T200), antibody captured on Protein A chip, antigen in flow, 1:1 Langmuir fit
Excerpt: A biosensor chip Protein A (Cat. # 29127556, GE) was used to affinity capture a certain amount of antibody to be tested. A series diluted of human 2Ig-B7-H3 antigen (Cat. #1949-B3-050/CF, R&D), human 4Ig-B7-H3 antigen (Cat. #11188-H08H, Sino Biological) or murine B7-H3 antigen (Cat. # 1397-B3-050/CF, R&D) was flowed through the surface of the chip. Real-time reaction signal was detected by using Biacore instrument (Biacore T200, GE), in order to obtain association and dissociation curves. After completion of each cycle of dissociation, the biochip was washed and regenerated with glycine-hydrochloric acid regeneration solution (pH 1.5) (Cat.#BR-1003-54, GE). The buffer used in the experiment was HBS-EP buffer solution (pH 7.4) (Cat. # BR-1001-88, GE).
The experimental data was fitted with BIA evaluation version 4.1 GE software in a (1:1) Langmuir model to obtain affinity values.

Row | Binder | EC50 (read off the curve) [1] [nM] | Kd [2] [nM]
1 | B1 | 2 | 1470
2 | B2 |  | 502
